According to patent publication US20170189545A1:
pIC50: −log10 of the molar value.

Key:
[1] = target: GLP-1 receptor; experiment: competition with I-125 exendin-4 (9-39) on RIN-m5F cells expressing GLP-1R, gamma counting
[2] = target: GLP-1 receptor; experiment: comparison of IC50 values, competition with I-125 exendin-4 (9-39) on RIN-m5F cells

Row | Substance | pIC50 [1] | fold better activity than Comparative example 1a (Lys^12-PEG5K-Ex4) [2] [fold] | fold better activity than Comparative example 1b (Lys^27-PEG5K-Ex4) [2] [fold] | fold better activity than Comparative example 2 (Nter-PEG5K-Ex4) [2] [fold]
1 | C40-PEG5K-Ex4 (linear) (peptide) | 8.98 | 6 | 2 | 120
2 | exendin-4 (peptide) | 9.64 | – | – | –
